Data from the Immune Epitope Database (IEDB).

Legend:
[1] = target: HLA-A*02:01; assay: IEDB peptide-MHC binding, purified MHC/direct/fluorescence; filed as Kd, often an IC50 or EC50 that approximates it; ≥ and ≤ were set here for values at or beyond the usual limits of such assays
[2] = target: HLA-A*02:16; assay: as above
[3] = target: HLA-A*03:01; assay: as above
[4] = target: HLA-A*23:01; assay: as above
[5] = target: HLA-A*24:03; assay: as above
[6] = target: HLA-A*29:02; assay: as above
[7] = target: HLA-A*68:02; assay: as above; settings: source organism: Burkholderia mallei ATCC 23344
[8] = target: HLA-B*15:01; assay: as above
[9] = target: HLA-B*15:17; assay: as above
[10] = target: HLA-B*18:01; assay: as above; settings: source organism: Burkholderia mallei ATCC 23344
[11] = target: HLA-B*27:03; assay: as above
[12] = target: HLA-B*39:01; assay: as above
[13] = target: HLA-B*46:01; assay: as above
[14] = target: HLA-B*51:01; assay: as above
[15] = target: HLA-B*57:01; assay: as above
[16] = target: HLA-A*01:01; assay: IEDB peptide-MHC binding, purified MHC/competitive/fluorescence; filed as Kd, often an IC50 or EC50 that approximates it; ≥ and ≤ were set here for values at or beyond the usual limits of such assays
[17] = target: HLA-A*11:01; assay: as above
[18] = target: HLA-A*30:01; assay: as above
[19] = target: HLA-A*30:02; assay: as above
[20] = target: HLA-A*66:01; assay: as above
[21] = target: HLA-B*07:02; assay: as above
[22] = target: HLA-B*08:01; assay: as above
[23] = target: HLA-B*14:02; assay: as above
[24] = target: HLA-B*27:05; assay: as above
[25] = target: HLA-B*40:01; assay: as above; settings: source organism: Burkholderia mallei SAVP1
[26] = target: HLA-B*44:02; assay: as above
[27] = target: HLA-B*53:01; assay: as above
[28] = target: HLA-B*58:01; assay: as above
[29] = target: HLA-A*02:03; assay: IEDB peptide-MHC binding, purified MHC/direct/fluorescence; filed as Kd, often an IC50 or EC50 that approximates it; ≥ and ≤ were set here for values at or beyond the usual limits of such assays; settings: source organism: Variola virus
[30] = target: HLA-A*02:06; assay: as above
[31] = target: HLA-A*69:01; assay: as above; settings: source organism: Camelpox virus CMS
[32] = target: HLA-A*02:11; assay: as above; settings: source organism: Entamoeba histolytica HM-1:IMSS
[33] = target: HLA-A*02:12; assay: as above; settings: source organism: Entamoeba histolytica HM-1:IMSS
[34] = target: HLA-A*02:19; assay: as above; settings: source organism: Entamoeba histolytica HM-1:IMSS
[35] = target: HLA-A*26:01; assay: as above; settings: source organism: Entamoeba histolytica HM-1:IMSS
[36] = target: HLA-B*40:01; assay: as above; settings: source organism: Entamoeba histolytica HM-1:IMSS
[37] = source organism: Burkholderia mallei ATCC 23344
[38] = source organism: Burkholderia mallei SAVP1
[39] = source organism: Entamoeba histolytica HM-1:IMSS

**Q.** NVMDPMHGA was tested. Which Kd [1, 37] did it give?
**A.** ≥ 20 µM

**Q.** And the Kd [2, 37]?
**A.** ≥ 20 µM

**Q.** What about the Kd [3, 37] of the same sequence?
**A.** ≥ 20 µM

**Q.** And the Kd [4, 37]?
**A.** ≥ 20 µM

**Q.** And the Kd [5, 37]?
**A.** ≥ 20 µM

**Q.** And the Kd [6, 37]?
**A.** ≥ 20 µM

**Q.** What about the Kd [7] of the same sequence?
**A.** ≤ 0.001 µM

**Q.** And the Kd [8, 37]?
**A.** ≥ 20 µM

**Q.** What about the Kd [9, 37] of the same sequence?
**A.** ≥ 20 µM

**Q.** What about the Kd [10] of the same sequence?
**A.** ≥ 20 µM

**Q.** What about the Kd [11, 37] of the same sequence?
**A.** ≥ 20 µM

**Q.** And the Kd [12, 37]?
**A.** ≥ 20 µM

**Q.** What about the Kd [13, 37] of the same sequence?
**A.** ≥ 20 µM

**Q.** And the Kd [14, 37]?
**A.** ≥ 20 µM

**Q.** And the Kd [15, 37]?
**A.** ≥ 20 µM

**Q.** And the Kd [16, 38]?
**A.** ≥ 5 µM

**Q.** What about the Kd [17, 38] of the same sequence?
**A.** ≥ 5 µM

**Q.** And the Kd [18, 38]?
**A.** ≥ 5 µM

**Q.** And the Kd [19, 38]?
**A.** ≥ 5 µM

**Q.** What about the Kd [20, 38] of the same sequence?
**A.** ≥ 5 µM

**Q.** And the Kd [21, 38]?
**A.** ≥ 5 µM

**Q.** And the Kd [22, 38]?
**A.** ≥ 5 µM

**Q.** And the Kd [23, 38]?
**A.** ≥ 5 µM

**Q.** And the Kd [24, 38]?
**A.** ≥ 5 µM

**Q.** And the Kd [25]?
**A.** ≥ 5 µM

**Q.** And the Kd [26, 38]?
**A.** ≥ 5 µM

**Q.** And the Kd [27, 38]?
**A.** ≥ 5 µM

**Q.** What about the Kd [28, 38] of the same sequence?
**A.** ≥ 5 µM

**Q.** What does the source list for DLYDMIHNV?
**A.** Kd ([1]; source organism: Camelpox virus CMS): 0.0159 µM; Kd [29]: 0.006 µM; Kd ([30]; source organism: Variola virus): 0.076 µM; Kd [31]: 0.002 µM

**Q.** What does the source list for IESNPLFPV?
**A.** Kd [1, 39]: ≥ 20 µM; Kd [30, 39]: 0.034 µM; Kd [32]: ≥ 20 µM; Kd [33]: 0.922 µM; Kd [2, 39]: ≥ 20 µM; Kd [34]: ≥ 20 µM; Kd [3, 39]: ≥ 20 µM; Kd [4, 39]: ≥ 20 µM; Kd [5, 39]: ≥ 20 µM; Kd [35]: ≥ 20 µM; Kd [6, 39]: ≥ 20 µM; Kd [8, 39]: ≥ 20 µM; Kd [9, 39]: ≥ 20 µM; Kd [11, 39]: ≥ 20 µM; Kd [12, 39]: ≥ 20 µM; Kd [36]: 0.051 µM; Kd [13, 39]: ≥ 20 µM; Kd [14, 39]: ≥ 20 µM; Kd [15, 39]: ≥ 20 µM; Kd [16, 39]: ≥ 5 µM; Kd [17, 39]: ≥ 5 µM; Kd [18, 39]: ≥ 5 µM; Kd [19, 39]: ≥ 5 µM; Kd [20, 39]: ≥ 5 µM; Kd [21, 39]: ≥ 5 µM; Kd [22, 39]: ≥ 5 µM; Kd [23, 39]: ≥ 5 µM; Kd [24, 39]: ≥ 5 µM; Kd [26, 39]: ≥ 5 µM; Kd [27, 39]: ≥ 5 µM; Kd [28, 39]: ≥ 5 µM
